Experimental data from the nanobody polyreactivity screen of Harvey et al. (2022).

Test: yeast display, Sf9 membrane polyspecificity reagent, FACS + sequencing; frameworks hold sequencing errors
How it was run: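 Galactose induction of a Saccharomyces cerevisiae BJ5465 synthetic nanobody display library ran 36–48 hours. The cells were then stained for 1 hour at 4 °C with 10% biotinylated, detergent-solubilized Sf9 membrane reagent, pulled down on streptavidin microbeads and FACS-sorted into low and high (top ~1%) gates on expression and reagent-binding fluorescence. Labels for polyreactivity follow the gate of origin.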

| Sequence | polyreactivity (PSR sort gate) |
| --- | --- |
| QVQQQESGGGLVQAGGSLRQSYAASGYIFPSLAMGWYRQAPGKEREFVAAIGRGSTNNYADSVKGRFTISRDNAKNTAYQQMNSLKPEDTAVYYCAAAASPLTRHLYWGQGTQVTVSS | low polyreactivity |
| QVQQQESGGGLVQVGGSQRLSCAASGNIFYNYAMGWYRHAQGKEREFDATINHGTSINYADSVKGRFTISRDNAKNTVYLQMNSLKPEDTAVYYCAADLSWTDNLFYWGQGTQVTVSS | low polyreactivity |
| QVQQQESGGGMEQARGSLRLSCAASGYISWADYMGCYRQAPGKERELVAVIGYGSTTYYADSVKGRFTMSRDNAKNTAYLQMNSLKPEDTAVYYCAVGWYRDTAYKYWGQGTQVTVSS | low polyreactivity |
| QVQQVESGGGLVQAGGSLRLSCAATGIIFNDYHMGWYRQAPGKERELVAAINYSGGSTYYADSVKGRFTISRDNAKNTVYLQMNSLKPEDTAVYYCAADNAVWEYDYWGQGTQVTVSS | low polyreactivity |
| QVQQVESGGGLVQAGGSLRLSCAATGRTFALYAMGWYRLAPGKERELVAGITFRGGSTYYADSVKGRFTISRDNAKNTVYLQMNSLKPEDTAVYYCAAERWRWYYSWTMDYWGQGTQVTVSS | high polyreactivity |
| QVQREESGGGLVQAGGSLRLSGAASGIIFHPYAMGWYRQAPGKERELVAAISWSGDGTYYADSVKGRFTISRDNAKNTVYLQMNSLKPEDTAVYYCNAFSQSWNFYGDGDYWGQGTQLTVSS | low polyreactivity |
| QVQRLESRGGLVQAGGSLRLSCAASGSTFDYNAMGWYRQAPGKERELVAAITSSGGSTYYADSVKGRFTISRDNAKNNVYLQMHSLKPEDTAVYYCNADGYVPDYEYWGQGTQVTVSS | high polyreactivity |
| QVQRVDSGGGLVQAGGSLRLTCAASGSTFDKYAMGWYRQAPGKERELVAAISLSGGSTYYADSVKGRFTISRDNAKNTVYLQMNSLKPEDTAVYYCNTPPSRYVRYGIYRYDYWGQGTQVTVSS | high polyreactivity |
| QVQRVESAGGLVQAGGSLRLSCAASGRTFSGNARGWYRPAPGKERELVAGISTTGGSTYYADSVKGRFTISRDNAKNTVYLEMNSLKPADTAVYYCAAYSASNGGYDYWGQGTQVTVSS | high polyreactivity |
| QVQRVESAGGLVQAGGSLRLSCAPTGSIFSTNPMGWYSQSPGTERELVATITWSDGSTYYADSVKGRFTISRDNAKNTVYLQLNSLKPEDTAVYDCATPYKRDFYKGGDYWAQGTQVTVSS | low polyreactivity |
| QVQRVESGGGLGQAGGSLRLSCDASGRTFSGNTMGWYRQAPVKERELVAVINSGTRTYYADSVKGRFTISRDNAKNTVYLQMYSLKPEDTAGYYCATRCKSPSSKYGYWGQGTQVNVSS | high polyreactivity |
| QVQRVESGGGLVLAGGSLRLSCAASAHIFAWYAMGWYRQAPGNERELVADISSRGGSTYYADSVKGRITISRDNAKNTVYLQMNSLKPEDTAVYSCAAVCYWTQDYDYWGQGTQVTVSS | low polyreactivity |
| QVQRVESGGGLVQAAASLRLSCAASGRTFYVYTMGWYRPAPGKERELVAAITSGGSTNYADSVKGRFTISRDNAKNTVSLHMNSLKPEVTAVYYCAARVSTVFKRYYYWGQGTQVTVSS | high polyreactivity |
| QVQRVESGGGLVQAGASLRLSCAASGRTFRSYTMGWYRQAPGKERELVATISGSGSTNYADSVKGRFTISRDNAKITVYLQMNSLKPEDTAVYYCAADVSLSVFKLDYWGQGTQVTVSS | low polyreactivity |
| QVQRVESGGGLVQAGCSLLLSCASSGNIFTRNAMGGYRHAPGKEREWVAAISTSGGRTYYADSVKGRFTISRDNAKNTVYLQMYSLKPEDTAVYYCAADYLSGTELYYWGQGTQVTVSS | high polyreactivity |
| QVQRVESGGGLVQAGGRLRLSFAAAGIIFKVNAMGWYRQAPGKERELVPAISWSGSSTYYADSVKGRFTISRDNAKNTVYLQMNSLKPEDTAVYYCGTRWFAVHMYWGQGTQVTVSS | high polyreactivity |

| Sequence | polyreactivity (PSR sort gate) |
| --- | --- |
| QVQRVESGGGLVQAGGSLLLSCAASGRTFRPYTMGWYRQAPGTERELVARITSGGSTNYADSVKGSFTISRDNAKNTVYLQMNSLKPEDTAVYYCNKPGDRHRLDEDYWGQGTQVTVSS | low polyreactivity |
| QVQRVESGGGLVQAGGSLLLSCAASGRTIRHNAMGWYRPAPGKERELVAAISRSGGSTYYADSVKGRFTISRDKAKNTVYLLMNSLKPEDTAVYYCAAGYHGYDWGQGTQVTVSS | high polyreactivity |
| QVQRVESGGGLVQAGGSLRLRCAASGRTFMTNAMGWYRQAPGTERELVAAISSGASTNYADSVKGRFTISRDNAKNTVYLQMNSLNPEDTAVYYCGAQLTDYQSKTLSYDYWGQGTQVTVSS | low polyreactivity |
| QVQRVESGGGLVQAGGSLRLRCAASGSIFYQYALGWYRQARGKEREWVAAISRSGGRTYYADSVKGRFTISRDNAKNTVYLQMNSLKPEDTAVYYCAAGTSWPWYQRDYWGQGTQVTVSS | low polyreactivity |
| QVQRVESGGGLVQAGGSLRLRCAASGSILYHNTMGWYIQAPGKEREFVASISANGGSTYYADSVKGRFTISRDNAKNTVYLQMNSLKPEDTAVYYCAARVADYPLVGGSSYNRMEYWGQGTQVTVSS | low polyreactivity |
| QVQRVESGGGLVQAGGSLRLSCAASGFIFARNAMGWNRPAPGKERELVAAINQSGGITRYADSVKGRFTISRDNAKNTVYLQMNSLKPEDTAVYYCATPLYVRYDYWGQGSQVTVSS | high polyreactivity |
| QVQRVESGGGLVQAGGSLRLSCAASGFTFYRYAMGWYRQAPGKEREFVAVINIRGSTTYYADSVKGRFTISRDNAKNTVYLQMNSLKPEDTAVYYCARRYRGPYYSLPRRKEFDYWGQGTQVTVSS | high polyreactivity |
| QVQRVESGGGLVQAGGSLRLSCAASGFTLDPYAMGWYRQAPGKEREFVAAIRLSGSSTYYADSVKGRFTISRDNAKNTVYLQMNSLKPEDTAVYYCAADGISHWLYRYDYWGQGTQVTVSS | low polyreactivity |
| QVQRVESGGGLVQAGGSLRLSCAASGLIFYRYVMGWYRQAPGKETELVAAISGNGASTYYADSVKGRFTISRDNAKNTVYLQMHSLKPEDTAVYYCNADVYVSSKTHSSSPQWWGYDYWGQGTQVTVSS | low polyreactivity |
| QVQRVESGGGLVQAGGSLRLSCAASGRIFNWYVMGWKRQAPGKERELVAAINSGGITKYADSVKGRFTISRDNAKNTVYLQMNSLKPEDSAVYYCAAYYRRYDYDYWGQGTQVTVSS | high polyreactivity |
| QVQRVESGGGLVQAGGSLRLSCAASGRTFSSYDLGWYRQAPGKERELVAAITSGGSTYYADSVKGRFTISRDNAKNTVYLQMNSLKPDDTAVYYCAADIYWWCSKDYDYWGQGTQVTVSS | high polyreactivity |
| QVQRVESGGGLVQAGGSLRLSCAASGRTFTYYAMGWYRQAPGKERELVAAISSRGGSTYYADSVKGRFTISRDNAKNTVYLQMNSLKPEDTAVYYCAAVLRFTRASRWPDFDYWGQGTQVTVSS | high polyreactivity |
| QVQRVESGGGLVQAGGSLRLSCAASGSIFASNAMGWYRQAPGKERELVADISGTTGSTYYADSVKGRFTISRDNAKNTVYLQMNSLKPEDTAVYYCAADLVWVSTSYYYWGQGTQVTVSS | low polyreactivity |
| QVQRVESGGGLVQAGGSLRLSCAASGSIFGPNTIGWSRQAPGKERDLVAAITRSGGSTYYADSVKGRFTISRDNAKNTVYLQMNSLKPEDTAVYYCAVGDGFEYDWGQGTQVTVSS | low polyreactivity |
| QVQRVESGGGLVQAGGSLRLSCAASGSIFKYYTMGLYRPAPGKERELVAYISSGGSTKYADSVKGRFTNSRDNAKNTVYLQMNSLKPEDTAVYYCAKRYYYFYPDYDFLGQGTQVTVSS | high polyreactivity |
| QVQRVESGGGLVQAGGSLRLSCAASGSIFRTYAMRWYRQAPGTERELVAAITSRGSSTYYADSVKGRFTISRDNAKNTVYLQMNSLKPEDTAVYSCPADYRTSYKGVLFSMYYWGQGTQVTVSS | high polyreactivity |
